We go through six molecules from patent US20240083986A1 (published 2024).

In experiment [1] the target is T1, European Hornbeam (Car b 1 isoform 1A & 1B, MyBiosource, Cat #MBS1200018) (European Hornbeam, UniProt P38949 2-160).
T1 construct: Bought reagent
T1 sequence (looked up): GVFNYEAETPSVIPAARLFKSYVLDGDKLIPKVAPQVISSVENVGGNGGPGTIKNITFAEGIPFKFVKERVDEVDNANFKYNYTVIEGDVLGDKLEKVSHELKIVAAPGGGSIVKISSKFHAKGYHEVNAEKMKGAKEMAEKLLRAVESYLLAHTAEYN
The experiment in a line: SPR, mAb captured via anti-hFc, 25 C.

Experiment [2] has as its target T2, Apple (Mal d 1, MyBiosource, Cat #MBS1224919) (Apple, UniProt P43211 2-159, limits assumed).
T2 construct: Bought reagent
T2 sequence (looked up): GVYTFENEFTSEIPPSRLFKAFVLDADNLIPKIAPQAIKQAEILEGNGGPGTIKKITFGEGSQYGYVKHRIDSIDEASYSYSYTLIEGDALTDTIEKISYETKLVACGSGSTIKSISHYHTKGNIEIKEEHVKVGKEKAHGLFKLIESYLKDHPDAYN
Description: SPR, mAb captured via anti-hFc, 25 C.

Experiment [3] concerns the target T3, Celery (Api g 1, MyBiosource, Cat #MBS1171376) (Celery, UniProt P49372 1-154, limits assumed).
T3 construct: Bought reagent
T3 sequence (looked up): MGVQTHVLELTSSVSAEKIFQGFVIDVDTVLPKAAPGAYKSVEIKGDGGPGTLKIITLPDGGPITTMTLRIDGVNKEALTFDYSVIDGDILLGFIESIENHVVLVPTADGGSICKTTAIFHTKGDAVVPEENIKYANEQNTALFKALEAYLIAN
The experiment in a line: SPR, mAb captured via anti-hFc, 25 C.

The target of experiment [4] is T4, CHO produced recombinant Bet v 1 containing a S85A mutation with a C-terminal myc-myc hexahistidine tag … (Betula verrucosa (birch)).
T4 chain: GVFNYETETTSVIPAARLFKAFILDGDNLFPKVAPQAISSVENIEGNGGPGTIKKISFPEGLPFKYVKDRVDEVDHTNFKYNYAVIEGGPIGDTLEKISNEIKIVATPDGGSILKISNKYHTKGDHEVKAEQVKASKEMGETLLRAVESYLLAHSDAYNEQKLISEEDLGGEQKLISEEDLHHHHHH
The experiment in a line: SPR, mAb captured via anti-hFc, 25 C.

The target in experiment [5] is T5, European Hornbeam (Car b 1 isoform 2, MyBiosource, Cat #MBS1043940) (European Hornbeam, UniProt P38950 2-160, limits assumed).
T5 construct: Bought reagent
T5 sequence (looked up): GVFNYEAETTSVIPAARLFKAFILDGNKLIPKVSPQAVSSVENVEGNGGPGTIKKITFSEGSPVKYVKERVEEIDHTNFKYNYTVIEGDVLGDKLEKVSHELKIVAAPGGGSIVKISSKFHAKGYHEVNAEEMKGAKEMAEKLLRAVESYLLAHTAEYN
Description: SPR, mAb captured via anti-hFc, 25 C.

For experiment [6], the target named is T4, CHO produced recombinant Bet v 1 …. The experiment in a line: SPR, mAb captured via anti-hFc, 37 C.
The target of experiment [7] is T6, Alder (Aln g 1, MyBiosource, Cat #MBS1041484) (Alder, UniProt P38948 2-160, limits assumed).
T6 construct: Bought reagent
T6 sequence (looked up): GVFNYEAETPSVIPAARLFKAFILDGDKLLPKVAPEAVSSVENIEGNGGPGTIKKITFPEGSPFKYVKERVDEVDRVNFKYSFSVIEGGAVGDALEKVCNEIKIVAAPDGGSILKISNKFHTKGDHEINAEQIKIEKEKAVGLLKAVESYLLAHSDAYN
The experiment in a line: SPR, mAb captured via anti-hFc, 25 C.

B1: H4H16943P (antibody, human IgG4, V domains shown)
VH: EVQLVESGGGLVQPGGSLRLSCTASGFMSSMYWMSWVRQAPGKGLEWVSNIKQDGTEKNYVESVKGRFTISRDNAKNSLYLQINSLRGEDTAVYYCARDLYSSSSGYYYYGLDVWGQGTTVTVSS
VL: DIVMTQSPLSLPVTPGEPASISCRSSQSLLHSNKYNYLDWYLQKPGQSPQLLIYLSSNRASGVPDRFSGSGSGTEFTLKISRVEAEDVGIYYCMQALHTPLTFGGGTKVEIK
notes: Fully human antibody with human IgG4 Fc (H4H prefix)
Turning to B1, in experiment [1], the “100 nM Analyte Bound (RU)” value worked out at 26 RU; the affinity, expressed as Kd, was 380 nM; the off-rate constant (koff) worked out at 0.0578 s⁻¹; the kon worked out at 152000 M⁻¹ s⁻¹. The molecule also showed a t½ in experiment [1] of 0.2 min. Moreover, in experiment [2], the “100 nM Analyte Bound (RU)” value is -1 RU. Also, in experiment [3], the “100 nM Analyte Bound (RU)” value is 0 RU and the binding result is recorded as “no binding (tested: 100 nM)”. For the same molecule, in experiment [4], the “100 nM natural Bet v 1- MMH Bound (RU)” value amounted to 0 RU and the binding result is listed as “no binding (tested: 100 nM)”. In addition, in experiment [5], the “100 nM Analyte Bound (RU)” value is 183 RU, the dissociation constant Kd came out at 0.335 nM, the koff is 0.000371 s⁻¹ and the kon turned out to be 1.11e+06 M⁻¹ s⁻¹. The molecule further registered a t½ in experiment [5] of 31 min. Moreover, the “100 nM natural Bet v 1-MHH Bound (RU)” value in experiment [6] is 0 RU. For the same molecule, in experiment [7], the “100 nM Analyte Bound (RU)” value worked out at 1 RU and the binding result was “no binding (tested: 100 nM)”.

B2: H4H16992P (antibody, human IgG4 S228P, kappa, V domains shown)
VH: QVQLQESGPGLVKPSETLSLTCSVSGGSITNYFWTWIRQSPGKGLEWIGYIYYSGGTNYNPSLKSRVTISIDTSKNQFSLNMNSVTAADTAVYYCAGSYYYGVDVWGQGTTVTVSS
VL: EIVLTQSPATLSLSPGERATLSCRASQSIKSFLAWYRQKPGQAPRLLIYDASNRPTGIPARFSGSGSGTDFTLTINSLESEDFAVYFCQQRNNWPFTFGPGTKVDIKR
notes: human IgG4 Fc; also called REGN5713; MAB1
Turning to B2, the “100 nM Analyte Bound (RU)” value was found to be 161 RU in experiment [1], 3 RU in experiment [2], 1 RU in experiment [3] and 5 RU in experiment [7]. Also, the Kd was 1.2 nM in experiment [1] and 0.617 nM in experiment [5]. Also, the t½ in experiment [1] was 34 min. Moreover, the binding result in experiment [2], in experiment [3] and in experiment [7] was “no binding (tested: 100 nM)” throughout.

B3: H4H16946P (antibody, human IgG4, V domains shown)
VH: EVQLVESGGGLVQPGGSLRLSCVASGFTFSNYDMNWVRQAPGEGLEWISYISYSDHNIYYIDSVKGRFTISRDNAKNSLYLQMNSLRAEDTAIYYCAREALASSSFDYWGQGTLVTVSS
VL: EIVMTQSPATLSVSPGERVTLSCRASQSVSGNLAWYQQKPGQAPRLLIYSASTGATGVPARFSGSGSGTEFTLTISSLQSEDFALYYCQQYNKWPRTIGQGTKVEIK
notes: as for B1
B3: in experiment [1], the “100 nM Analyte Bound (RU)” value was determined as 63 RU, the Kd worked out at 168 nM, the koff worked out at 0.024 s⁻¹ and the kon was 143000 M⁻¹ s⁻¹. The t½ in experiment [1] was found to be 0.5 min. Also, in experiment [2], the “100 nM Analyte Bound (RU)” value was 0 RU and the binding result is given as “no binding (tested: 100 nM)”. Besides, in experiment [3], the “100 nM Analyte Bound (RU)” value turned out to be 1 RU and the binding result is “no binding (tested: 100 nM)”. Besides, in experiment [4], the “100 nM natural Bet v 1- MMH Bound (RU)” value came out at 83 RU, the Kd turned out to be 0.348 nM, the dissociation rate constant (koff) turned out to be 0.000141 s⁻¹ and the kon turned out to be 405000 M⁻¹ s⁻¹. For the same molecule, in experiment [4], the t½ came out at 82 min. Further, in experiment [5], the “100 nM Analyte Bound (RU)” value worked out at 63 RU, the Kd amounted to 179 nM, the koff was determined as 0.0138 s⁻¹ and the kon was 76900 M⁻¹ s⁻¹. The same molecule came in with a t½ in experiment [5] of 0.8 min. For the same molecule, in experiment [6], the “100 nM natural Bet v 1-MHH Bound (RU)” value came to 97 RU, the Kd turned out to be 0.655 nM, the dissociation rate constant (koff) stood at 0.000395 s⁻¹ and the kon came out at 603000 M⁻¹ s⁻¹. Moreover, in experiment [6], the t½ is 29 min. In experiment [7], the “100 nM Analyte Bound (RU)” value was determined as 2 RU and the binding result is on record as “no binding (tested: 100 nM)”.

B4: H4H16950P (antibody, human IgG4, V domains shown)
VH: QVQLVQSGAEVKKPGASVKVSCKTSGYTFTNYGITWVRQAPGQGLEWMGWISAYNGNTNYAQNVQGRVTMTTDTSTSTAYMEVRSLRSDDTAVYYCARRSSMLHFQHWGQGTLVTVSS
VL: DIVMTQSPDSLAVSLGERATINCKSSQHVLYDSSNENYLAWFQQKPGQPPKLLIYWASTRESGVPDRFSGSGSGTDFTLTISSLQAEDVAVYYCQQYSSAPYTFGQGTKLEIK
notes: as for B1
Turning to B4, in experiment [1], the “100 nM Analyte Bound (RU)” value was -1 RU. The “100 nM Analyte Bound (RU)” value in experiment [2] was -1 RU. Moreover, in experiment [3], the “100 nM Analyte Bound (RU)” value came out at 0 RU and the binding result is reported as “no binding (tested: 100 nM)”. For the same molecule, in experiment [4], the “100 nM natural Bet v 1- MMH Bound (RU)” value was 70 RU, the Kd turned out to be 2.21 nM, the koff amounted to 0.000335 s⁻¹ and the kon came out at 151000 M⁻¹ s⁻¹. In experiment [4], the t½ is 35 min. Further, in experiment [5], the “100 nM Analyte Bound (RU)” value was found to be 0 RU and the binding result was “no binding (tested: 100 nM)”. In addition, in experiment [6], the “100 nM natural Bet v 1-MHH Bound (RU)” value was 83 RU, the Kd stood at 5.81 nM, the koff amounted to 0.00125 s⁻¹ and the kon was 215000 M⁻¹ s⁻¹. In addition, the t½ in experiment [6] amounted to 9.2 min. Also, in experiment [7], the “100 nM Analyte Bound (RU)” value came to 15 RU, binding was characterised by a dissociation constant (Kd) of 175 nM, the koff was determined as 0.016 s⁻¹ and the on-rate constant (kon) is 91200 M⁻¹ s⁻¹. The molecule also registered a t½ in experiment [7] of 0.7 min.

B5: H4H16960P (antibody, human IgG4, V domains shown)
VH: QLQLQESGPGLVRPSETLSLTCTVSGGSISSSNYWWGWIRQPPGKGLEWIGSIYYSGITYYNPSLKSRVTISADTSKDQFSLKLRSVTAADTAVYYCAKLEWLRLDFWGQGTTVTVSS
VL: DIQMTQSPSSVSASVGDRVTITCRASQGISSWLVWYQQKPGKVPKLLIYAASSLQSGVPLRFSGSGSGTDFTLTISSLQPEDFATYYCQQAKSFPLTFGQGTRLEIK
notes: as for B1
As to B5, in experiment [1], the “100 nM Analyte Bound (RU)” value is 4 RU and the binding result was “no binding (tested: 100 nM)”. Also, in experiment [2], the “100 nM Analyte Bound (RU)” value was determined as 1 RU and the binding result is reported as “no binding (tested: 100 nM)”. In experiment [3], the “100 nM Analyte Bound (RU)” value came out at 0 RU and the binding result was “no binding (tested: 100 nM)”. In addition, in experiment [4], the “100 nM natural Bet v 1- MMH Bound (RU)” value stood at 64 RU, the Kd worked out at 0.789 nM, the koff is 0.000443 s⁻¹ and the kon came to 562000 M⁻¹ s⁻¹. Also, the t½ in experiment [4] was found to be 26 min. In experiment [5], the “100 nM Analyte Bound (RU)” value was determined as 1 RU and the binding result is “no binding (tested: 100 nM)”. In experiment [6], the “100 nM natural Bet v 1-MHH Bound (RU)” value was 72 RU, the Kd worked out at 2.01 nM, the koff turned out to be 0.00177 s⁻¹ and the on-rate (kon) stood at 879000 M⁻¹ s⁻¹. Further, the t½ in experiment [6] came to 6.5 min. Moreover, in experiment [7], the “100 nM Analyte Bound (RU)” value amounted to 29 RU; the affinity, expressed as Kd, was 147 nM; the koff turned out to be 0.0332 s⁻¹; the kon turned out to be 226000 M⁻¹ s⁻¹. In experiment [7], this molecule showed a t½ of 0.3 min.

B6: H4H16967P (antibody, human IgG4, V domains shown)
VH: QVQLVESGGGVVQPGRSLRLSCAASGFTFSSYGMHWFRQAPGKGLEWVGVIWSDGSDKKYADSVKGRFTISRDNSKNTLYLLMNSLRDDDTAVYHCAREGGFLYSSSSHFDYWGQGTLVTVSS
VL: AIQMTQSPSSLSASVGDRVTITCRTSQGIRNDLGWYQQKPGKAPKLLIFAASSLQSGVPSRFSGSGSGTDFTLTISSLQPEDFAIYYCLQDYKYPFTFGGGTKVEIK
notes: as for B1
Regarding B6, the “100 nM Analyte Bound (RU)” value is -1 RU in experiment [1]; -2 RU in experiment [2]; -1 RU in experiment [3]; 0 RU in experiment [5]; 0 RU in experiment [7]. The “100 nM natural Bet v 1- MMH Bound (RU)” value in experiment [4] was 0 RU. Further, the binding result in experiment [5] and in experiment [7] was “no binding (tested: 100 nM)” in each case. Moreover, the “100 nM natural Bet v 1-MHH Bound (RU)” value in experiment [6] is -1 RU.
